From the DeepSol protein solubility set

Assay: soluble on expression in E. coli; label from the status in PepcDB or PDB records

Sequence | soluble on expression in E. coli
GPGSMPLMSADGSGELPPVMLHRYPVTLGLPTADPYALAIECMLRIVGAHYKKRDGGLPVTLEVPVDGRNKPAMKRHEGLTSCLQLIESATHQDAEVITSALEPEALCVRLTAEVVLIPAFVYITHSDAGILRNAIQKAVEPKVASMWQRFRGSYSRHVVQQTSFCRSYKNMGEAIENVERCLRAIEAICSINTAGNGMFILGTERPCSADALIYAAASSFFHADFASRQASGDIIAMQQRLREGCPTLLTYVERLRGLYFEDYSAFYHLRAPTCGMEGEATQKAAEETFVRGRWKVLAFTGVFSITYFLVANIDVFSAVLLHYLEDDGEEEFLEDEE | not soluble
GPGSMPSPFQQTLLARAYHYVHPKTGRPIRQFRRYGDPRYINNEAALIRGQWGLITADFGMVTQSQMENARLAILRRLPRGSFTLTMHTDYEEFPVVKKSPESRMGAGKANIHHFAFKFTTGVPLFEIMPISARRLNQAEAEGIFLAGRPFIPLQTVVVPQGRVDEYHVFK | not soluble
GPGSMQEIIDTVNRYTLRSAAFRDKPTPGLAARQFLCSLLLHRKLDSIRLSSIARYMFSTEALIAVSRDGIQTISCEGNTLWPICTIPNGLTSEISGVAVTPEGTLVCSSNGICYLEGENLRVAEDCASSSYAQNVLCISCTPDGRYIATGGGTATVTVWTSDLKPLHHFAGHTDWVRFVKFARGRSPALQLFSTGDDGVICQWDVLAGSLISRVDYSLGESIQLFEVSYYSGLMAISSGTSLIALYCPQSDNTTRAVGEDVLRLQPMALITGAHEYTPTAGKFTDDSQWLASASEDETIALTYVLDPQTCFVCKKFVTRRRCFSFMNIFNSICILAAPPVSSVIVIAACSSDGTVVQWVVDPRTNRASYTKKLQLHLGSFLGMDLIPGDDLNHLL | not soluble
GPGSMSAEAVADLERRAAAAETAIGELSLRLQTMGSSVGAGIEPRLRELLKLMHEDRAEFEAVRAQRDELKEENERLKIQVAKHEYRIKHLLRTIEEISPEENS | soluble
GPGSMTAGAPTTVAGEYPRPSASLHPSVDCSSLNRVPTATAAAPPPPSPRLSGYVMPSVVNPYSQGASQQPAMAHVSEPVNPASYLQQANAMGRWSYQQPPLQQPQYPTLDPVATRVAAIDAEEAAMAAEEMTMRAKLAELQVARKQQEEEQLYLSHGWAQMLEKEERYYTEPVIDLRPDIMAREQQCAMLHNHLQQVEAQAQHAQSQLQGTEYILRDAESFEQERRRVQDAFQEVERRRRECVARAERYFDVEAKRVVEGNKVIRKLDSQLREMTQRGPLAQLQDGNRHPFHRS | not soluble
GPGSMTDYIRDGQAIYDRSFAIIRAEADLRHIPADLEKLAVRVIHACGMVDVANDLAFSEGAGKAGRNALLAGAPILCDARMVAEGITRSRLPADNRVIYTLSDPSVPELAKKIGNTRSAAALDLWLPHIEGSIVAIGNAPTALFRLFELLDAGAPKPALIIGMPVGFVGAAESKDELAANSRGVPYVIVRGRRGGSAMTAAAVNALASERE | soluble
GPGSMTSPAQAQVHSAPSRHAHTSILSQQMLSTPAGHPVSQPDTSQAAPDAPVWRPTTVPWKPVDTQQSACSALPAKTDDAIAAHSLQWERDAAVGNPNDESGRVVSQAFAFPRWMGPPALTSTATSREEGDSPTATVPSMEERWSTFQRLAQASEATFRSMSEATARQHADVTAHQKEIAAYQESQRQLTLQQQQRLDSLTRECAQLRQTEASTKEVVAHQVERLVALESELQTTRVQLSEIRLAQAQCVEERKRLQQACKMHEVHTSELQASLQFADEVVRSMRQTVAACEREKNEALMQQYSNFESYRNNLIAAYDKRAAEARDEFAKRVESLQAGMLETVAKREEQLKASWEETATRMRHEYDELVRLGQQRRAAMDTELRERKEQLERDKEFMRVQQREEADMMEQRFRAREETLLDDIARRERELREREAVLRAAQAQQEVDVQRRLQAREAELRAAHDAALKRMADQAAAEREKLSENFMERLQQLSNAHMQQERELERMHREKEREMAQRYRLSGIDGGDRGEVRDRRATEYALASPSMAKEALLKKFETVEQRQRERSDKLRSAFSAQENELQPPL | soluble
GPGSMTTAASEGIVSREQLQMMLHVILHSTDNNERRNVEKSVVQLLTTPSTLTLLMVMLRDVQGSSPGVRQLAAVLLRKKVLSLWRTIPSESRGDFKGALLEQLGCEPVKAVRLALAHLVTRVAKADAMDEDGGWPELNYAIRAAVIDPRAEMRELAMVLAYSVAEVMSEADTHCLPVVEAVLQGMLDSEDAVQRSAVKAVGTLFVFMRGQTKVWEQLLQQLVPQCLALLTKCGTEETKTNLCVDVLDLLEQLVEDLSVKKHGALLRSVALEVLSVMTNGAIQPRVRQSCAEVLASLVNQKPKFVSTTVLEPLVSACVQVMSEDNAISLPEVAHTEGMENCDDSQSDENDAADMLHVDPPCLFAGRLLSTIATKVAAKSFTGALLPLISPVAQSPQAVGPTGAKSFDPRSCLFGRG | not soluble
GPGSMTTPNFELYGYFRSSCSGRLRIAFHLKSIPYTRHPVNLLKGEQHSDTYKSLNPTNTVPLLVVSNINNTVSPSSASFSIGQSLAALEYLEEALPTNARPLLPPISNPVARAHVRTICNIIACDVQPVTNLKIQKKVKALDGDPTVWSRDLATQGFGAVEKLLELSAGRFCVGDEITLADVCLVPAVWAAERVGMDLARFPITKRVFEEMLKEEAVQKAHWQKQEDTPEDLRA | soluble
GPGSMTVVRAALLGFGTVGQGIYKIVQQRREQLKQKLGGAELVIVKILVRDLRKRSRVLPDGYASDAKLFTNNIEDVFRADVQVIFEATVGEEPAFTYLQRAIVEHGCSVITANKVMFARYGATLQELAASCTPTSSFPATRVYVGFEATVAAGVPIIKTLQNMCHVQQVRKIEGIVNGTSNYILTELREYPEKSFEEVLKKSQELGYAEADPTNDISGHDAFMKLLVMVAIAFGHQPSRSTVPVTGIDTLTPEMLQDARAKGLRYRHVVSAAMEGAATSSCALKSSAAEGEEAQPRTPPLHERLTCSVKPMLLGPEHPLYHMDGTTSAVSVWTDYLGVVTISGPGAGMYCTASAMMEDYAVWMEAFRRP | not soluble
GPGSMVRIRSLAKELRQLELQKQTASLPPPRAASSDDVLDDATRSATSSRKPEAPSCSSSPRDGDILTNAAHASTTAEAEAVPSSSPASRTVAAAEPQPTSAFPLSQLSLSSPDGAHNRSRNSLYSLGGSRFNILLGGSHGDGGACRKSQVRKATRACASGGGKNGAATATATQVPQRRGEAGGSSLLEKGKDGEVVANPAPPLGTSSGIPTRPPFKRLLAQPFSHVLVCDFEATCASGSVHYPHEIIEFPVVVLDTATLRIVAEFHRYVRPLRNPKLTAFCTELTGITQEMVDVADPLPTVVAQFQDWLKTEVYPLCWMWARHYGPNRLSHNLKSEQRRFVYDEHTDAAKANTSAEAMVCMATDGPWDMRRFMHQCSVLRDGVDFPPVCYRYINVRHSYSDHFKCRQAKLTHMLKKMSMSFEGRRHSGIDDTRNIARVLAELFARGYRVHHVSTITYAHRGDAFLESNRAAQELLSEFGETDETHTSKHANAHKGGGRQRGVKRA | not soluble
GPGSRVRDKKDMDASELELRRVQGSLNKLTDKNFDAVVEEALSPDLVLNPLVLKGAVDIIFNKAMAEPVFSGIYAQLCQRIKVYEQDLVAEAAENPTSELGQLMAAVQAGDEDQKNVNGRVRNALVKRCQEFHDSFVKQPPPRNAEAEEQLRKRNMANIKFVGELYMRSLISHRVILAVCSTALVLGFIPSPKLVTTDADLEMMVSLMNVIGKRFDENAGMALNHVPKDAAAAAHPHDTIWRALNSSMNDPRFSRRIRFLIQNLLEWRNDGWKPKESPAQGSSGGSADDSNNTT | not soluble
GPLGMATEEAIIRIPPYHYIHVLDQNSNVSRVEVGPKTYIRQDNERVLFAPVRMVTVPPRHYCIVANPVSRDAQSSVLFDVTGQVRLRHADQEIRLAQDPFPLYPGELLEKDITPLQVVLPNTALHLKALLDFEDKNGDKVMAGDEWLFEGPGTYIPQKEVEVVEIIQATVIKQNQALRLRARKECFDRDGKERVTGEEWLVRSVGAYLPAVFEEVLDLVDAVILTEKTALHLRARQNFKDLRGVAHRTGEEWLVTVQDTEAHVPDVYEEVLGVVPITTLGPRHYCVILDPMGPDGKNQLGQKRVVKGEKSFFLQPGERLERGIQDVYVLSEQQGLLLKALQPLEEGEGEERVAHQAGDRWLIRGPLEYVPSAKVEVVEERQAIPLD | soluble
GPLGSASAAASGKEGVEITYGSAIKLMHEKTKFRLHSHDVPYGSGSGQQSVTGFPGVVDSNSYWIVKPVPGTTEKQGDAVKSGATIRLQHMKTRKWLHSHLHASPISGNLEVSCFGDDTNSDTGDHWKLIIEGSGKTWKQDQRVRLQHIDTSGYLHSHDKKYQRIAGGQQEVCGIREKKADNIWLAAEGVYLPLNESSK | soluble
GPLGSEAQSEKEEAPKPLHKVVVCVSKKLSKKQSELNGIAASLGADYRWSFDETVTHFIYQGRPNDTNREYKSVKERGVHIVSEHWLLDCAQECKHLPESLYPHTYNPK | soluble
GPLGSLGRRWGPNVQRLACIKKHLRSQGITMDELPLIGGCELDLACFFRLINEMGGMQQVTDLKKWNKLADMLRIPKTAQDRLAKLQEAYCQYLLSYDSLSPEEHRRLEKEVLMEKEILEK | soluble
GPLGSPRNANDNNQFYQQKQRQALGEQLYKKVSAKTSNEEAAGKITGMILDLPPQEVFPLLESDELFEQHYKEASAAYESFKKEQEQQTEQA | soluble
GPLGSPRYELGEELRDKIKQEPSFSNMVSAKKFYNKAIKDFTAPKEGAEVVSVKTHIMRPIDFMLMGLREEFNLYSEDGAHLSAPGTIRLLREKNLLPEEQIARIESVYNQAMSKRFELHAEHKKEHDEMPYSDAKAMLDEVAKIRELGVQRVTRIENLENAKKLWDNANSMLEKGNISGYLKAANELHKFMKEKNLKEDDLRPELSDKTISPKGYAILQSLWGAASDYSRAAATLTESTVEPGLVSAVNKMSAFFMDCKLSPNERATPDPDFKVGKSKILVGIMQFIKDVADPTSKIWMHNTKALMNHKIAAIQKLERSNNVNDETLESVLSSKGENLSEYLSYKYATKDEGREHRYTASTE | soluble
GQNHHEVVKFMDVYQRSYCHPIETLVDIFQEYPDEIEYIFKPSCVPLMRCGGCCNDEGLECVPTEESNITMQIMRIKPHQGQHIGEMSFLQHNKCECRPKKD | soluble
GRGSEHLTIGFKVENAHDRILKTIKTHKLKNYIKESVNFLNSGLTKTNYLGSSNDNIELVDFQNIMFYGDAEVGDNQQPFTFILDTGSANLWVPSVKCTTAGCLTKHLYDSSKSRTYEKDGTKVEMNYVSGTVSGFFSKDLVTVGNLSLPYKFIEVIDTNGFEPTYTASTFDGILGLGWKDLSIGSVDPIVVELKNQNKIENALFTFYLPVHDKHTGFLTIGGIEERFYEGPLTYEKLNHDLYWQITLDAHVGNIMLEKANCIVDSGTSAITVPTDFLNKMLQNLDVIKVPFLPFYVTLCNNSKLPTFEFTSENGKYTLEPEYYLQHIEDVGPGLCMLNIIGLDFPVPTFILGDPFMRKYFTVFDYDNHSVGIALAKKNL | soluble
GRRDNLIVGLDIGTTKICAIVGNVTEDGIDIVGIGTSPSRGMRKGVVINIESTVESIKKAVSEAELMAGCDIRSVYAGIAGGHIKGINSQGVIAIKNREVSSEDVKRVIDAAKAIAIPMDR | not soluble
GRYEIRFSGAGGQGLILAGVIMAEAASIYDGKQAVQSQSYGPEARGGASKSEVIISDGPVDYPKATQCDALLALTQEACDKYSADLKEGGVLLVDSDLVTKLPPGNYQTTAFNIINTAKNDVGREIVANIVALGAMVALTGVVSKEAAEKAVLSRVPEAFVELNRKAFQMGFEKAL | not soluble
